The supplement of paper PMC10126150
± gives the standard deviation of the averaged measurements.

Tested on: ATP
Assay: switch fluorescence ratio, 500 uM ATP over buffer (Cy3 cluster intensity, sum of 5 cycles each) (fold (ratio)); higher = stronger signal-on switching upon ATP binding; sequences stand for … in TCGTCGGCAGCGTCAGATGTGTATAAGAGACAGTTTTTTTTTTTTTTTTTTTTTTTTT…TC
Conditions: aptamer strand: ATP DNA aptamer (quencher-CACCTGGGGGAGTATTGCGGAGGAAGG + anchor), 100 nM annealed; ATP concentration: 500 uM
Summary of the method: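 Cy3-labelled switching-strand clusters on a modified Illumina MiSeq flow-cell were annealed to 100 nM quencher-labelled ATP aptamer and imaged first in selection buffer, then after 15 min with 500 uM ATP at 22 °C. NaOH stripping and re-annealing separated each of five buffer/ATP cycles, and clusters outside 100-1000 RFU were excluded. The fluorescence ratio sums target-cycle Cy3 intensity over buffer-cycle Cy3 intensity per cluster and averages it per switch-domain sequence.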
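Note: ATP exposure 15 min at 22 °C before imaging.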

## AGGAGACATA
  switch fluorescence ratio: 1 ± 0.021

## AGGAGAGGAG
  switch fluorescence ratio: 1.02 ± 0.038

## AGGAGCGCGT
  switch fluorescence ratio: 1.02 ± 0.051

## AGGAGCGGGG
  switch fluorescence ratio: 1 ± 0.1

## AGGAGCGGTG
  switch fluorescence ratio: 0.985 ± 0.047

## AGGAGCTCGG
  switch fluorescence ratio: 0.994 ± 0.013

## AGGAGGAAAG
  switch fluorescence ratio: 0.987 ± 0.028

## AGGAGGAGTT
  switch fluorescence ratio: 1.01 ± 0.053

## AGGAGGCTAG
  switch fluorescence ratio: 1.02 ± 0.045

## AGGAGGGGA
  switch fluorescence ratio: 1.03 ± 0.02

## AGGAGGGGCG
  switch fluorescence ratio: 0.983 ± 0.0099

## AGGAGGTCGG
  switch fluorescence ratio: 0.991 ± 0.01

## AGGAGGTTGT
  switch fluorescence ratio: 0.976 ± 0.017

## AGGAGTGTTC
  switch fluorescence ratio: 1.01 ± 0.084

## AGGATACTGG
  switch fluorescence ratio: 0.975 ± 0.031

## AGGATCGGAT
  switch fluorescence ratio: 1.04 ± 0.003

## AGGATCGGTC
  switch fluorescence ratio: 1.02 ± 0.021

## AGGATCTCGA
  switch fluorescence ratio: 0.996 ± 0.033

## AGGATGGGAG
  switch fluorescence ratio: 0.999 ± 0.023

## AGGATGGGGA
  switch fluorescence ratio: 0.99 ± 0.023

## AGGATGGTAC
  switch fluorescence ratio: 1.03 ± 0.015

## AGGATGTAGG
  switch fluorescence ratio: 1.02 ± 0.035

## AGGATGTTTT
  switch fluorescence ratio: 0.995 ± 0.039

## AGGATTAAAT
  switch fluorescence ratio: 0.987 ± 0.026

## AGGATTGTTG
  switch fluorescence ratio: 0.994 ± 0.07

## AGGATTTATG
  switch fluorescence ratio: 0.962 ± 0.021

## AGGATTTT
  switch fluorescence ratio: 0.955 ± 0.066

## AGGATTTTTC
  switch fluorescence ratio: 1.03 ± 0.044

## AGGATTTTTT
  switch fluorescence ratio: 1.003 ± 0.0094

## AGGCAACTAG
  switch fluorescence ratio: 1.05 ± 0.027

## AGGCACCATC
  switch fluorescence ratio: 1.06 ± 0.045

## AGGCACCGGT
  switch fluorescence ratio: 1.04 ± 0.0041

## AGGCACGGGC
  switch fluorescence ratio: 1.0064 ± 0.001

## AGGCACTACA
  switch fluorescence ratio: 1.017 ± 0.0064

## AGGCAGATAG
  switch fluorescence ratio: 1.04 ± 0.025

## AGGCAGCTAT
  switch fluorescence ratio: 1.05 ± 0.038

## AGGCAGGAGG
  switch fluorescence ratio: 1 ± 0.015

## AGGCAGGGGG
  switch fluorescence ratio: 1.03 ± 0.021

## AGGCATCTGG
  switch fluorescence ratio: 0.994 ± 0.011

## AGGCCACTCG
  switch fluorescence ratio: 0.978 ± 0.0036

## AGGCCAGCTG
  switch fluorescence ratio: 0.993 ± 0.062

## AGGCCAGGCG
  switch fluorescence ratio: 1.02 ± 0.051

## AGGCCAGTTG
  switch fluorescence ratio: 1.02 ± 0.012

## AGGCCCGTTA
  switch fluorescence ratio: 0.9957 ± 0.0027

## AGGCCGGCAA
  switch fluorescence ratio: 1.02 ± 0.045

## AGGCCGGTGA
  switch fluorescence ratio: 1.01 ± 0.018

## AGGCCTTCAG
  switch fluorescence ratio: 0.9915 ± 0.0083

## AGGCCTTGGC
  switch fluorescence ratio: 1.018 ± 0.0039

## AGGCCTTGTG
  switch fluorescence ratio: 0.985 ± 0.025

## AGGCCTTTTG
  switch fluorescence ratio: 0.956 ± 0.033

## AGGCGCGTGG
  switch fluorescence ratio: 1.03 ± 0.013

## AGGCGCTGGG
  switch fluorescence ratio: 0.999 ± 0.028

## AGGCGGATCG
  switch fluorescence ratio: 0.99 ± 0.085

## AGGCGGCGAG
  switch fluorescence ratio: 1 ± 0.024

## AGGCGGGTGC
  switch fluorescence ratio: 1.04 ± 0.095

## AGGCGGGTTG
  switch fluorescence ratio: 0.993 ± 0.026

## AGGCGGTGGG
  switch fluorescence ratio: 1.044 ± 0.0059

## AGGCGTGGGG
  switch fluorescence ratio: 1.03 ± 0.017

## AGGCTAGGGC
  switch fluorescence ratio: 0.993 ± 0.022

## AGGCTCGTAC
  switch fluorescence ratio: 1.08 ± 0.09

## AGGCTGGGGA
  switch fluorescence ratio: 1.01 ± 0.057

## AGGCTGTCAC
  switch fluorescence ratio: 0.996 ± 0.013

## AGGCTTACCC
  switch fluorescence ratio: 1.01 ± 0.018

## AGGCTTGGGT
  switch fluorescence ratio: 0.982 ± 0.024

## AGGCTTTCAG
  switch fluorescence ratio: 0.9828 ± 0.0011

## AGGCTTTTTC
  switch fluorescence ratio: 0.999 ± 0.024

## AGGCTTTTTG
  switch fluorescence ratio: 0.969 ± 0.015

## AGGGAAAAAA
  switch fluorescence ratio: 1.01 ± 0.043

## AGGGAAAATG
  switch fluorescence ratio: 0.967 ± 0.033

## AGGGAAAATT
  switch fluorescence ratio: 0.995 ± 0.011

## AGGGAAAGCT
  switch fluorescence ratio: 1.12 ± 0.2

## AGGGAAGATA
  switch fluorescence ratio: 0.998 ± 0.014

## AGGGAAGCGG
  switch fluorescence ratio: 0.982 ± 0.047

## AGGGAAGGGA
  switch fluorescence ratio: 1 ± 0.013

## AGGGAAGTTT
  switch fluorescence ratio: 1.03 ± 0.084

## AGGGAATGAA
  switch fluorescence ratio: 1.03 ± 0.085

## AGGGAATTAC
  switch fluorescence ratio: 1.022 ± 0.0036

## AGGGACACTA
  switch fluorescence ratio: 1.07 ± 0.028

## AGGGACAGGG
  switch fluorescence ratio: 1.02 ± 0.05

## AGGGACATAT
  switch fluorescence ratio: 1.018 ± 0.006

## AGGGACGCTT
  switch fluorescence ratio: 1.14 ± 0.12

## AGGGACTGGG
  switch fluorescence ratio: 0.993 ± 0.038

## AGGGAGACGG
  switch fluorescence ratio: 1 ± 0.033

## AGGGAGCCGG
  switch fluorescence ratio: 0.965 ± 0.03

## AGGGAGGAAA
  switch fluorescence ratio: 1 ± 0.036

## AGGGAGGCTC
  switch fluorescence ratio: 1 ± 0.057

## AGGGAGGGAG
  switch fluorescence ratio: 0.97 ± 0.035

## AGGGAGGTGT
  switch fluorescence ratio: 0.997 ± 0.036

## AGGGAGTTGG
  switch fluorescence ratio: 0.995 ± 0.032

## AGGGATATAT
  switch fluorescence ratio: 0.98 ± 0.011

## AGGGATATTT
  switch fluorescence ratio: 1.01 ± 0.033

## AGGGATTCGC
  switch fluorescence ratio: 0.997 ± 0.011

## AGGGCATAAG
  switch fluorescence ratio: 0.982 ± 0.062

## AGGGCATCGG
  switch fluorescence ratio: 1.021 ± 0.0044

## AGGGCATTAT
  switch fluorescence ratio: 1.04 ± 0.047

## AGGGCCCTCG
  switch fluorescence ratio: 0.9898 ± 0.0036

## AGGGCCTCCG
  switch fluorescence ratio: 1.295 ± 0.0091

## AGGGCCTGGG
  switch fluorescence ratio: 0.999 ± 0.04

## AGGGCGACCG
  switch fluorescence ratio: 1.07 ± 0.069

## AGGGCGCGCT
  switch fluorescence ratio: 1.01 ± 0.034
